Laboratory results from the nanobody polyreactivity screen of Harvey et al. (2022).

Experiment: yeast display, Sf9 membrane polyspecificity reagent, FACS + sequencing; frameworks hold sequencing errors
Method in brief: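 Nanobodies came from a synthetic yeast display library in Saccharomyces cerevisiae BJ5465, induced with galactose for 36–48 hours and stained for 1 hour at 4 °C with 10% biotinylated, detergent-solubilized Sf9 membrane reagent. Cells were enriched on streptavidin microbeads and then FACS-sorted, with low and high (top ~1%) gates set on anti-HA fluorescence for expression and streptavidin fluorescence for reagent binding. Each polyreactivity label reflects the gate a clone came from. Genes were amplified by colony PCR, sequenced by MiSeq 2 × 250 and filtered by CDR length.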

Row | Sequence | polyreactivity (PSR sort gate)
1 | QVQLVESGGGLVQAGGSLRLSCAASGSTFVSYAMGWYRQAPGKERDFVAAITWSGGSTYYADSVKGRFTISRDNAKNTVYLQMNSLKPEDTAVYYCNARTGRSPTGFRYWGQGTQVTVSS | high polyreactivity
2 | QVQLVESGGGLVQAGGSLRLSCAASGSTFVSYAMGWYRQAPGKERELVAAISFSDDSTYYADSVKGRFTISRDNAKNTVYFQMHSLKPEDTAVYYCAAASDSYVRVLEGFTFDYWGQGTQVTVSS | low polyreactivity
3 | QVQLVESGGGLVQAGGSLRLSCAASGSTFVTNAMGWYRKAPGKERELVAAIRWSGGNTYYADSVKGRFTISRDNAKNTVYLQMNSLKPEDTAVYYCAAKKHLLPSYRGIRYYYWGQGTQVTVSS | high polyreactivity
4 | QVQLVESGGGLVQAGGSLRLSCAASGSTFVTNAMGWYRQAPGKEREFVAAISNSSGSTYYADSVKGRFTISRDNEKNTVYLQMNSLKPEDTAVYYCNATPDDWLQEDYWGQGTQVTVSS | low polyreactivity
5 | QVQLVESGGGLVQAGGSLRLSCAASGSTFVTYAMGRYRQAPGTERELVAAISRRGGSTYYADSVKGRFTISRDNAKYTVYLQLNSLKPVDTAFYYCAAVQGSYSRDGADDYWGQGTQVTVSS | high polyreactivity
6 | QVQLVESGGGLVQAGGSLRLSCAASGSTFVVNAMGWYRQAPGKERELVAAIAGGGSTNYADSVKGRFTISRDNAKNTVYLQMNRLKPEDTAVYYCAKDLTQSYEYDYWGQGTQVTVSS | low polyreactivity
7 | QVQLVESGGGLVQAGGSLRLSCAASGSTFVVNAMGWYRQAPGKERELVAAISWSGASTYYADSVKGRFTISRDNAKNTVYLQMKSLIQEDTAVYYCAADYSHYFYYYPSFVKFDYWGQGTQVTVSS | high polyreactivity
8 | QVQLVESGGGLVQAGGSLRLSCAASGSTFVVNAMGWYRQAPGKERELVAAITQSGGSTFYADSVKGRFTISRDNAKNTVYLQMNSLKPEDTAVYYRGQGTQVTVSS | low polyreactivity
9 | QVQLVESGGGLVQAGGSLRLSCAASGSTFVVYAMGWYRQAPGKERELVAAISSSGGSTYYADSVKGRFTISRDNAKNTVYLQMNSLKPEDTAVYYCAAGSRFVSSRLYYWGQGTQVTVSS | high polyreactivity
10 | QVQLVESGGGLVQAGGSLRLSCAASGSTFVVYAMGWYRQAPGKERELVAAITGSGGSTYYADSVKGRFTISRDNAKNTVYLQMNSLKPEDTAVYYCAADLYFYVISWGYGFYYWGQGTQVTVSS | low polyreactivity
11 | QVQLVESGGGLVQAGGSLRLSCAASGSTFVVYDMGWDRQAPGKERELVAAITWSGGSTYYADSVKGRFTISRDNAKNTVYLQINSLKPEDTAVYYCNKVTWHQGHDYLGQGTQVTVSS | low polyreactivity
12 | QVQLVESGGGLVQAGGSLRLSCAASGSTFVWYAMGWYRQAPGKEREFVATISWSDGSTYYADSVKGRFTISRDNAKNTVYLQKNSLKPEDTAVYYCATDVDRFFTYKYDYWGQGTQVTVSS | low polyreactivity
13 | QVQLVESGGGLVQAGGSLRLSCAASGSTFVWYAMGWYRQAPGKESELVAVIDWSGGSTSYADSVKGRFTISRDNAKNTVYLQMNSLKPEDTAVYYCAAQLGVISRGNYWGQGTQVTVSS | low polyreactivity
14 | QVQLVESGGGLVQAGGSLRLSCAASGSTFVWYAMGWYRQEPGKERELVAAINFGGTTYYADSVNGRFTISRDNAKNTVYLQMNSLKTEDTAVYYCATEYDYGSWYPDGWGIFDYWGQGTQVTVSS | low polyreactivity
15 | QVQLVESGGGLVQAGGSLRLSCAASGSTFVWYGMGWYRQQPGNQREFVAAIYTSGGRTYYADSVKGRFTISRDNAKITVYLQMNSLKPEDTALYYCDTRPYFTYRWYDYWGQGTQVTVSS | high polyreactivity
16 | QVQLVESGGGLVQAGGSLRLSCAASGSTFVWYVMGWYRQAPGNERELVAAISRSGGTTFYADSVKGRFTISRANAKNTVYLQMNSLKPEDTAVYYCAAEDVAYRPGYDYWGQGTQVTVSS | high polyreactivity
17 | QVQLVESGGGLVQAGGSLRLSCAASGSTFVYMGWYRQAPGKEREFVAAITWSGGSTYYADSVKGRFTISRDNAKNTVYLQMNSLKPEDTAVNYCNAVSVIPGWARYYSWGQGTQVSVSS | low polyreactivity
18 | QVQLVESGGGLVQAGGSLRLSCAASGSTFVYMGWYRQAPGKEREFVAAITWSGGSTYYADSVKGRFTISRDNAKNTVYLQMNSLKPEDTAVYYCNAVSDIPGWARYYYWGQGTQVTVSS | low polyreactivity
19 | QVQLVESGGGLVQAGGSLRLSCAASGSTFVYNAMGWYRQAPGKERELVAAISSGGSTYYADSVKGRFTISRDNAKNTVYLQMNSLKPEDTAVYYCNARGSWRRDKYGTYYRYDYWGQGTQVTVSS | high polyreactivity
20 | QVQLVESGGGLVQAGGSLRLSCAASGSTFVYNAMGWYRQAPGKERELVAAISSRGGGTYYADSVKGRFTISRDNAKNSVYLQMYSLKPEDTAVYYCNTLPYTHGSNDYWGQGTQVTVSS | high polyreactivity
21 | QVQLVESGGGLVQAGGSLRLSCAASGSTFVYNAMGWYRQAPGKERELVAAITRRGGGTYYADSVKGRFTISRDNAKNTVYLQMNSLKPEDTAVYYCAADSRGWSLDGDYWGQGTQVTVSS | low polyreactivity
22 | QVQLVESGGGLVQAGGSLRLSCAASGSTFVYNAMGWYRQAPGKERELVAGIRSSGDRTYYADSVKGRFTISRDNGKNTVYLQMNSLKPEDTAVYYCAAYLGRDPWFSRQGYGYWGQGTQVTVSS | high polyreactivity

Row | Sequence | polyreactivity (PSR sort gate)
23 | QVQLVESGGGLVQAGGSLRLSCAASGSTFVYNDMGWYRQAPGKEGELVAGITTSGGSTYYADSVKGRFTISRDNAKNTVYLQINSLKPEDTAVYYCAARAFSAWLEMDYWGQGTQVTVSS | low polyreactivity
24 | QVQLVESGGGLVQAGGSLRLSCAASGSTFVYNDMGWYRQAPGKERELVAVITSGGNTYYADSVKGRFTISRDNAKNTVYLQMNSLKPEDTAVYYCATRWYRFYPSDYWGQGTQVTVSS | low polyreactivity
25 | QVQLVESGGGLVQAGGSLRLSCAASGSTFVYYAMGWYRPAPGKERELVAAISKRGGSTYYADSVKGRFTISRDNAKNTVYLQMNSLKPEDTAVYHCAADQARGRYTLDYWGQGTQVTVSS | high polyreactivity
26 | QVQLVESGGGLVQAGGSLRLSCAASGSTFVYYAMGWYRQAPGKEREFVAAISTNGGSTYYADSVKGRYTISRDNAKNTVYLQMNSLKPEDTAVYYCAARWYWGQGTQGTVSS | high polyreactivity
27 | QVQLVESGGGLVQAGGSLRLSCAASGSTFVYYAMGWYRQAPGKEREFVATIYRGDNTNYADSVKGRFTISRDNAKNTVYLQMNSLKPEDTAVYYCAADEPKWDLGGGTYLRDYWGLGTQVTVSS | low polyreactivity
28 | QVQLVESGGGLVQAGGSLRLSCAASGSTFVYYAMGWYRQAPGKERELVAAIRNGDGTNYADSVKGRFTISRDNAKNTVYLQMNSLKPEDTAVYYCAAPQGEYFYVYEFDYWGQGTQVTVSS | low polyreactivity
29 | QVQLVESGGGLVQAGGSLRLSCAASGSTFVYYAMGWYRQAPGKERELVAAISTSAGSTYYADSVKGRFTISRDNAKNTVYLQMNSLKPEDTAVYYCAAGRYYRGYYWGQGTQVTVSS | high polyreactivity
30 | QVQLVESGGGLVQAGGSLRLSCAASGSTFVYYAMGWYRQAPGKERELVAAISWSGTRTYYADSVKGRFTISRDNAKNTVYLQMNSLKPEDTAVYYCATRKQSRSVGYNYWGQGTQVTVSS | high polyreactivity
31 | QVQLVESGGGLVQAGGSLRLSCAASGSTFVYYAMGWYRQAPGKERELVAAITASGGGTYYADSVKGRFTISRDNAKNTVYLQMNSLKPEDTAVYYCNRGYDYWGQGTQVTVSS | low polyreactivity
32 | QVQLVESGGGLVQAGGSLRLSCAASGSTFVYYAMGWYRQAPGKERELVAAITSRGGSTYYADSVKGRFTISRDNAKNTVYLQMNSLKPEDTAVYYCAKYAYSFPYNYWGQGTQVTVSS | high polyreactivity
33 | QVQLVESGGGLVQAGGSLRLSCAASGSTFVYYAMGWYRQAPGKERELVAAMTSSGGRTYYADSVKGRFTISRDNAKNTVYLQMNSLKPEDTAVYYCATPSTRLYSVTSQGYGYWGQGTQVTVSS | high polyreactivity
34 | QVQLVESGGGLVQAGGSLRLSCAASGSTFVYYAMGWYRQAPGKERELVADISWSGGDTYYADSVKGRFTISRDNAKNTVYLQMNSLKPEDTAVYYCAAEWSTPSYVGFADGFEYWGQGTQVTVSS | low polyreactivity
35 | QVQLVESGGGLVQAGGSLRLSCAASGSTFVYYAMGWYRQAPGKERELVASITGGGRTNYADSVKGRFTISRENAKNNVYLQMNSLKPEDTAVYYCAKDHASYYYWPSVLPYDHWGQGSQVTVSS | low polyreactivity
36 | QVQLVESGGGLVQAGGSLRLSCAASGSTFVYYAMGWYSQAPGKERELVAAITRSGGRTYYADSVKGRFTNSRDNAKNRVYLQMNSLKPEDTAVYYCAADDYTGYGYWGQGTQVTVSS | high polyreactivity
37 | QVQLVESGGGLVQAGGSLRLSCAASGSTFVYYDMGWYRQAPGKERELVAAITNGGNTYYADSVKGRFTISRDNAKNTVYLQMNSLKPEDTAVYYCAKLYTDAIVWSAYDYWGQGTQVTVSS | low polyreactivity
38 | QVQLVESGGGLVQAGGSLRLSCAASGSTFWAYVMGWYRQAPGKERELVAAISSGGTTNYADSVKGRFTISRDNAKNTVYLQMNSLKPEDTAVYYCAAEYPSVYYERFDYWGQGTQVTVSS | low polyreactivity
39 | QVQLVESGGGLVQAGGSLRLSCAASGSTFWEKAIGWSRQAPGKEMELAAAISWGGASTYYADSVKGRFTISRDNAKNTVYLQMNSLKPEDTAVYYCAADQTSTQFLSSYGGYNYWGQGTQVTVSS | low polyreactivity
40 | QVQLVESGGGLVQAGGSLRLSCAASGSTFWFNAMGWYRQAPGKERELVAAIDSGGGTYYADSVKGRFTISRDNAKNTAYLQMNSLKPEDTAVFYCNASHPPKAELDYWGQGTQVTVSS | low polyreactivity
41 | QVQLVESGGGLVQAGGSLRLSCAASGSTFWFYAMGWYRQAPGKERELVAVISNSGSTYYADSVKGRFTISRDNAKNTVYLQMNSLKPEDTAVYYCNRYYPVPYDYWGQGTQVTVSS | low polyreactivity
42 | QVQLVESGGGLVQAGGSLRLSCAASGSTFWHYAMGWYRQAPGKERELVAAISSGGGRTYYADSVKGRFTISRDNAKNTVYLQMNSLQPEDTAVYYCAARYYFYDYWGQGTQVTLSS | high polyreactivity
43 | QVQLVESGGGLVQAGGSLRLSCAASGSTFWKYVKGWYRQAPGKERELVAAISNSGVNTYYADSVKGRFTISRDNAKNTVYLQMNSLKTEDTAVYYCAADRCGYEYWGQGTQVTVSS | high polyreactivity
